Molecular target: CD74 disordered region peptide (CLIP), …
Assay: modified sandwich ELISA, fluorescence grade by the table's key

Substance: FlhG
- fluorescent signal (fluorescentsignal): 100000 to 250000

Reference: patent publication US20250387450A1
